doi:10.1101/2020.10.25.354415 (bioRxiv, 2020)
Where a chain is given by its changes, count along the chain named. Names and notes keep the numbering of the source.

T1: β-catenin (M. musculus, UniProt Q02248 1-781)
T1 sequence (looked up): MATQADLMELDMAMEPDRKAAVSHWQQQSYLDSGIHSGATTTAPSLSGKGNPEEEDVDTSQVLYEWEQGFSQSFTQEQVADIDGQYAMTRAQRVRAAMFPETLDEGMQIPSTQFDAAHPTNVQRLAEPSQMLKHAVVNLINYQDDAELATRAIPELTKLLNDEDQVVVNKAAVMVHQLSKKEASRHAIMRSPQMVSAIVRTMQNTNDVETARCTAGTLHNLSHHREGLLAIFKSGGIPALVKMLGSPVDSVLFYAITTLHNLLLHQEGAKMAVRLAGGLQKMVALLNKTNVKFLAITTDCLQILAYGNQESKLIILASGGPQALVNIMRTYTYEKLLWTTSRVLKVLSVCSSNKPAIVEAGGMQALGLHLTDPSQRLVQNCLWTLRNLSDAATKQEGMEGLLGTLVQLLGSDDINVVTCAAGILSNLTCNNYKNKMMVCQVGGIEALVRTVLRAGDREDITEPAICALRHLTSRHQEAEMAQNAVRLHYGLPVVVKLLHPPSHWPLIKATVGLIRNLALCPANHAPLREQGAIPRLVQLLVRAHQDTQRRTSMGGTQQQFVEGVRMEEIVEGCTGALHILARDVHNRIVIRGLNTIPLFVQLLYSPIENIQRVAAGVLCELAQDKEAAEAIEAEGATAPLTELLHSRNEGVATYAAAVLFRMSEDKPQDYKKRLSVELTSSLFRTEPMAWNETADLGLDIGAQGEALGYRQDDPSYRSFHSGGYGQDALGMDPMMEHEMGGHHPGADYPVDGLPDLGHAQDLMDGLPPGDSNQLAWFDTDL

T2: β-catenin•N-cadherin cytoplasmic tail complex (M. musculus | , UniProt Q02248 1-781; P15116 746-906)
T2 sequence (looked up) 1: T1 sequence (looked up)
T2 sequence (looked up) 2: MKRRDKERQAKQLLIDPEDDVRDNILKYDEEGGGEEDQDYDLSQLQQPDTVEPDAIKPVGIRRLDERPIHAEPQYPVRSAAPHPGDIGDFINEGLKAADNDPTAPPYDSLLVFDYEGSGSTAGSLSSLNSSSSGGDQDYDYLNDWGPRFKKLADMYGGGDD

T3: αT-catenin N2-M3 (aa147-626) (M. musculus, UniProt Q65CL1 147-626)
T3 sequence (looked up): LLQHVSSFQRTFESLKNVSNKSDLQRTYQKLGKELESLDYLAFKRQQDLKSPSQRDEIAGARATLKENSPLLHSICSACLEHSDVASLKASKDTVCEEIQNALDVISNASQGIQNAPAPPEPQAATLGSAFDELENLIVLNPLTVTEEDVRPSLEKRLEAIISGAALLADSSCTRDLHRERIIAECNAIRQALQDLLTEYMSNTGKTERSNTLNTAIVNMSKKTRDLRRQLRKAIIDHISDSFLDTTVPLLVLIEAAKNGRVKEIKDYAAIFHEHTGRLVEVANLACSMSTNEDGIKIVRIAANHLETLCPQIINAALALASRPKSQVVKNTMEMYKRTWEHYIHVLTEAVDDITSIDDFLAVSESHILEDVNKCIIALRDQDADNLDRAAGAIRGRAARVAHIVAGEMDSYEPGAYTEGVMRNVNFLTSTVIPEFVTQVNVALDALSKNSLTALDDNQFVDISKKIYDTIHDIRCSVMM

T4: αT-catenin head•β-catenin complex (M. musculus, UniProt Q65CL1 1-659; Q02248 1-781)
T4 sequence (looked up) 1: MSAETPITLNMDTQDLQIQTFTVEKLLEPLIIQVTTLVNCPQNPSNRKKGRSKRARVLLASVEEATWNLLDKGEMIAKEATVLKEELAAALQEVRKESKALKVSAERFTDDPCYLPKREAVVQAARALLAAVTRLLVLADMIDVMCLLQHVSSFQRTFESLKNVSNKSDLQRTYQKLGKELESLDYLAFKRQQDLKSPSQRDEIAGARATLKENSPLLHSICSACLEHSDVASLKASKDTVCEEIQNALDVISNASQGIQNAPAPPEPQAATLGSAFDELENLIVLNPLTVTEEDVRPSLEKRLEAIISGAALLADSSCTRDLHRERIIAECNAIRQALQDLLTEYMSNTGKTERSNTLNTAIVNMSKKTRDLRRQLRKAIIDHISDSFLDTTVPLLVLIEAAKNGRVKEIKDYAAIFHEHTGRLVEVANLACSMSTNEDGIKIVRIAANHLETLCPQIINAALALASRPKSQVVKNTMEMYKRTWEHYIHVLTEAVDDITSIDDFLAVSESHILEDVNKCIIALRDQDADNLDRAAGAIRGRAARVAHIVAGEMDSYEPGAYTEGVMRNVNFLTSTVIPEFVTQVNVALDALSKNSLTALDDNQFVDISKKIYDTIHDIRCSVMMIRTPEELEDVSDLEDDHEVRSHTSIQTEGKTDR
T4 sequence (looked up) 2: T1 sequence (looked up)

T5: 2I27-αT-catenin M1-M3(aa259-667)-2I27 (UniProt Q65CL1)
T5 sequence (Q9UI47 whole entry, species assumed, looked up): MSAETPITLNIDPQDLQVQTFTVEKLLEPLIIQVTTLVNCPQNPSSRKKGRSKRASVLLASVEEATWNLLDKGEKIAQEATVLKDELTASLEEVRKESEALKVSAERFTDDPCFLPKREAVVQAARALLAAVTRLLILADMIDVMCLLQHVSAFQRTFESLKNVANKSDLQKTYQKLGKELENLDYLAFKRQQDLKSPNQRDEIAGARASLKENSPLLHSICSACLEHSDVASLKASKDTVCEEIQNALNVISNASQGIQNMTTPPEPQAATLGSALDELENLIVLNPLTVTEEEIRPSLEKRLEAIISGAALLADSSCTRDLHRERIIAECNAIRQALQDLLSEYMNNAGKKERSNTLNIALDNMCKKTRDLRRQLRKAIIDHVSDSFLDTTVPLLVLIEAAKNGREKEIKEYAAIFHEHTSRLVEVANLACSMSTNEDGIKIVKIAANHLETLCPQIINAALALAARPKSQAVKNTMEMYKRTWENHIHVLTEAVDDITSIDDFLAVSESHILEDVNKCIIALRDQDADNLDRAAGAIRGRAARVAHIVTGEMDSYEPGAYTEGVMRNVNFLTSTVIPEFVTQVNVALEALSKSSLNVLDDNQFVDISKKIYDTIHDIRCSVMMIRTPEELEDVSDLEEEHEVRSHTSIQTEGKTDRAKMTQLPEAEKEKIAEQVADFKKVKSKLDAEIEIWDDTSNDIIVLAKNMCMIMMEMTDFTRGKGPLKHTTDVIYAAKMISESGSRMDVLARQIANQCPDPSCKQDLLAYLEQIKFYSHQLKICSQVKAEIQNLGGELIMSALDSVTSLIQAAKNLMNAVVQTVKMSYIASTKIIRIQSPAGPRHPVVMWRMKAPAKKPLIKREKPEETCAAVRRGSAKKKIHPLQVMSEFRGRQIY

T6: αT-catenin M1-M3 (aa260-626) (M. musculus, UniProt Q65CL1 260-626)
T6 sequence (looked up): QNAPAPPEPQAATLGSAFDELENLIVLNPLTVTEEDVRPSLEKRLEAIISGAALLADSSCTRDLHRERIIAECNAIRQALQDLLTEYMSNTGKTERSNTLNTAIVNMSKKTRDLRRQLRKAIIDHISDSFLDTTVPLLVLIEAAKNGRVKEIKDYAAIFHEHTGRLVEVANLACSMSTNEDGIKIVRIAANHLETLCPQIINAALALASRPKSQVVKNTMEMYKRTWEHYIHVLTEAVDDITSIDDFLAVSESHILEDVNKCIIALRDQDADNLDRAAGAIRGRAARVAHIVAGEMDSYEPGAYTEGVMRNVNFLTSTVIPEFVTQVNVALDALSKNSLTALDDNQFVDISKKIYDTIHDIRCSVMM

B1: αT-catenin head region (aa1-659) (domain or fragment, M. musculus, UniProt Q65CL1 1-659, looked up)
chain: T4 sequence (looked up) 1
B2: αT-catenin V94D N1-N2 (domain or fragment, M. musculus, UniProt Q65CL1 1-259, looked up)
chain: MSAETPITLNMDTQDLQIQTFTVEKLLEPLIIQVTTLVNCPQNPSNRKKGRSKRARVLLASVEEATWNLLDKGEMIAKEATVLKEELAAALQEDRKESKALKVSAERFTDDPCYLPKREAVVQAARALLAAVTRLLVLADMIDVMCLLQHVSSFQRTFESLKNVSNKSDLQRTYQKLGKELESLDYLAFKRQQDLKSPSQRDEIAGARATLKENSPLLHSICSACLEHSDVASLKASKDTVCEEIQNALDVISNASQGI
B3: αT-catenin N1-N2 (aa1-259) (domain or fragment, M. musculus, UniProt Q65CL1 1-259, looked up)
chain: B2 chain with D94V
B4: vinculin D1 (aa1-259) (domain or fragment, UniProt P12003 1-259, looked up)
chain: MPVFHTRTIESILEPVAQQISHLVIMHEEGEVDGKAIPDLTAPVSAVQAAVSNLVRVGKETVQTTEDQILKRDMPPAFIKVENACTKLVRAAQMLQADPYSVPARDYLIDGSRGILSGTSDLLLTFDEAEVRKIIRVCKGILEYLTVAEVVETMEDLVTYTKNLGPGMTKMAKMIDERQQELTHQEHRVMLVNSMNTVKELLPVLISAMKIFVTTKNTKSQGIEEALKNRNFTVEKMSAEINEIIRVLQLTSWDEDAWA

What was measured:
β-catenin = biological target: T1, β-catenin; test: ITC
[1] = biological target: T2, β-catenin•N-cadherin cytoplasmic tail …; test: ITC
SEC = biological target: the molecule itself; test: SEC
[2] = biological target: T3, αT-catenin N2-M3 (aa147-626); test: ITC
[3] = biological target: B1; test: ITC
[4] = biological target: T4, αT-catenin head•β-catenin complex; test: ITC
[5] = biological target: T5, 2I27-αT-catenin M1-M3(aa259-667)-2I27; test: ITC
[6] = biological target: T6, αT-catenin M1-M3 (aa260-626); test: ITC

With B1 the Kd (β-catenin) was roughly 250 nM and the Kd [1] was 5 to 6 nM.

B2 was tested, and the “stoichiometry N” value (SEC) was 2.

B3 gave a Kd [1] of 7 nM.

With B4 the Kd [2] was 50 nM, the Kd [3] was roughly 5000 nM and the Kd [4] was roughly 3000 nM. For the same binder, the Kd [5] was 250 nM and the Kd [6] was 50 nM.
